Results as given in IntAct's records for PubMed 20010697.

B1: Zinc finger protein ZFPM1 (Mus musculus), O35615 (parent)
chain: MSRRKQSNPRQIKRSLRDMEAGEEAKAMDSSPKEQEAPDPEAPAIEEPPSPPREDVSPPAVPAPPESPEDPEDMEGQELEMRPQDEEKEEKEEEAAMASPWSGPEELELALQDGQRCVRARLSLTEGLSWGPFYGSIQTRALSPEREEPGPAVTLMVDESCWLRMLPQVLTEEAANSEIYRKDDALWCRVTKVVPSGGLLYVRLVTEPHGAPRHPVQEPVEPGGLAPVHTDIQLLPQQAGMASILATAVINKDVFPCKDCGIWYRSERNLQAHLLYYCASRQRAGSPVSATEEKPKETYPNERVCPFPQCRKSCPSASSLEIHMRSHSGERPFVCLICLSAFTTKANCERHLKVHTDTLSGVCHNCGFISTTRDILYSHLVTNHMVCQPGSKGEIYSPGAGHPAAKLPPDSLAGFQQHSLMHSPLVPADKAPTPSSGLDSKAEVTNGETRVPPQNGGSSESPAAPRTIKVEAAEEPEATRASGPGEPGPQAPSRTPSPHSPNPVRVKTELSSPTPGSSPGPGELTMAGTLFLPQYVFSPDAGTTTVPTAPQASEILAKMSELVHNRLQQGAGSSGAAGTPTGLFSGTKGATCFECEITFNNINNFYVHKRLYCSGRRAPEDPPTVRRPKAATGPARAPAGAAAEPDPSRSSPGPGPREEEASGTTTPEAEAAGRGSEGSQSPGSSVDDAEDDPSRTLCEACNIRFSRHETYTVHKRYYCASRHDPPPRRPPAPTTAPGPAAPALTAPPVRTRRRRKLYELPAAGAPPPAAGPAPVPVVPSPTAELPSSPRPGSASAGPAPALSPSPVPDGPIDLSKRPRRQSPDAPTALPALADYHECTACRVSFHSLEAYLAHKKYSCPAAPLRTTALCPYCPPNGRVRGDLVEHLRQAHGLQVAKPAASPGAEPRTPAERAPRDSPDGRAPRSPSPAPENTPSDPADQGARTPSKGPPAPAPAPGGGGGHRYCRLCNIRFSSLSTFIAHKKYYCSSHAAEHVK
partner: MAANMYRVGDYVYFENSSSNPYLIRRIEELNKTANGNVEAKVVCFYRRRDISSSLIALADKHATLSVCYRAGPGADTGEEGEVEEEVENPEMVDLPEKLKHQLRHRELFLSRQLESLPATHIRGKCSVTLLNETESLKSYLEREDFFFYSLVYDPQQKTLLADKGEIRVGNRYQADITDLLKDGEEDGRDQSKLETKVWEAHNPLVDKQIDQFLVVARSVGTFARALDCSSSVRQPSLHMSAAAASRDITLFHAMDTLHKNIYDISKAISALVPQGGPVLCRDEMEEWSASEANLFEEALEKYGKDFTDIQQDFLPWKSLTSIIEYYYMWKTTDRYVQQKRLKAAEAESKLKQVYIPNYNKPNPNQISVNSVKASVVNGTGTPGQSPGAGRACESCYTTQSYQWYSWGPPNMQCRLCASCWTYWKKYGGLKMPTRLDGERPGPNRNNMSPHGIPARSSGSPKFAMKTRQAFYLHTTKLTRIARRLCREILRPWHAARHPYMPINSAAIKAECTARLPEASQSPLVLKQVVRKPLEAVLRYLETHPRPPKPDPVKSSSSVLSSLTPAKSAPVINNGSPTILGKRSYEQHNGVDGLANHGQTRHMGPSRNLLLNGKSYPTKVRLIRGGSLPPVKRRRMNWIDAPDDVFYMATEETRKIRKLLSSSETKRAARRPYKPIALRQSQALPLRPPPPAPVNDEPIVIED

Variants of: B1
Details: with mta1_rat Mta1, Q62599
In the case of R3A, the “effect of a mutation on the interaction” value is reported as “disrupting interaction”. In the case of K5A, the “effect of a mutation on the interaction” value is reported as “disrupting interaction”.
